From publication PMC10709394, “Structural basis for nucleosome binding and catalysis by the yeast Rpd3S/HDAC holoenzyme” (Cell Research, 2023) come the findings set out here.

The chains are these.
B1: Eaf3 (natural protein, yeast, UniProt Q12432 1-401, looked up)
chain: MVDLEQEFALGGRCLAFHGPLMYEAKILKIWDPSSKMYTSIPNDKPGGSSQATKEIKPQKLGEDESIPEEIINGKCFFIHYQGWKSSWDEWVGYDRIRAYNEENIAMKKRLANEAKEAKKSLLEQQKKKKLSTSLGGPSNGGKRKGDSRSNASISKSTSQSFLTSSVSGRKSGRSSANSLHPGSSLRSSSDQNGNDDRRRSSSLSPNMLHHIAGYPTPKISLQIPIKLKSVLVDDWEYVTKDKKICRLPADVTVEMVLNKYEHEVSQELESPGSQSQLSEYCAGLKLYFDKCLGNMLLYRLERLQYDELLKKSSKDQKPLVPIRIYGAIHLLRLISVLPELISSTTMDLQSCQLLIKQTEDFLVWLLMHVDEYFNDKDPNRSDDALYVNTSSQYEGVALGM
notes: Two copies stand in the holoenzyme; also called Eaf3 I; Eaf3 II
B2: Rco1 (natural protein, yeast, UniProt Q04779 1-684, looked up)
chain: MDTSKKDTTRSPSHSNSSSPSSSSLSSSSSKEKKRPKRLSSQNVNYDLKRRKIITSEGIERSFKNEHSNLAVEDNIPEEEPKELLEKDSKGNIIKLNEPSTISEDSKVSVTGLPLNKGPSEKIKRESLWNYRKNLGGQSNNSEMTLVPSKRFTQVPKNFQDLNRNDLKTFLTENMTEESNIRSTIGWNGDIINRTRDREPESDRDNKKLSNIRTKIILSTNATYDSKSKLFGQNSIKSTSNASEKIFRDKNNSTIDFENEDFCSACNQSGSFLCCDTCPKSFHFLCLDPPIDPNNLPKGDWHCNECKFKIFINNSMATLKKIESNFIKQNNNVKIFAKLLFNIDSHNPKQFQLPNYIKETFPAVKTGSRGQYSDENDKIPLTDRQLFNTSYGQSITKLDSYNPDTHIDSNSGKFLICYKCNQTRLGSWSHPENSRLIMTCDYCQTPWHLDCVPRASFKNLGSKWKCPLHSPTKVYKKIHHCQEDNSVNYKVWKKQRLINKKNQLYYEPLQKIGYQNNGNIQIIPTTSHTDYDFNQDFKITQIDENSIKYDFFDKIYKSKMVQKRKLFQFQESLIDKLVSNGSQNGNSEDNMVKDIASLIYFQVSNNDKSSNNKSASKSNNLRKLWDLKELTNVVVPNELDSIQFNDFSSDEIKHLLYLKKIIESKPKEELLKFLNIENPENQSE
notes: Two copies stand in the holoenzyme; also called Rco1 I; Rco1 II
B3: Rpd3 (enzyme, yeast, UniProt P32561 1-433, looked up)
chain: MVYEATPFDPITVKPSDKRRVAYFYDADVGNYAYGAGHPMKPHRIRMAHSLIMNYGLYKKMEIYRAKPATKQEMCQFHTDEYIDFLSRVTPDNLEMFKRESVKFNVGDDCPVFDGLYEYCSISGGGSMEGAARLNRGKCDVAVNYAGGLHHAKKSEASGFCYLNDIVLGIIELLRYHPRVLYIDIDVHHGDGVEEAFYTTDRVMTCSFHKYGEFFPGTGELRDIGVGAGKNYAVNVPLRDGIDDATYRSVFEPVIKKIMEWYQPSAVVLQCGGDSLSGDRLGCFNLSMEGHANCVNYVKSFGIPMMVVGGGGYTMRNVARTWCFETGLLNNVVLDKDLPYNEYYEYYGPDYKLSVRPSNMFNVNTPEYLDKVMTNIFANLENTKYAPSVQLNHTPRDAEDLGDVEEDSAEAKDTKGGSQYARDLHVEHDNEFY
notes: Rpd3, yeast class I histone deacetylase, endogenous catalytic subunit of Rpd3S; Subunit of the endogenous holoenzyme; also called Rpd3/HDAC

Common to all, as to experiment: cryo-EM structure; endogenous Rpd3S incubated with an excess of H3Kc36me3 mononucleosome (70-bp DNA link at one end), fractionated by gel filtration, concentrated, no cross-linking; 3.7 Å
The target of the data set “Rpd3” is B3. Conditions: both partners purified.
For another data set, the target named is T1, Sin3 (yeast, UniProt P22579 1-1536).
T1 construct: Sin3, yeast, endogenous scaffold subunit of Rpd3S
T1 sequence (P22579 whole entry): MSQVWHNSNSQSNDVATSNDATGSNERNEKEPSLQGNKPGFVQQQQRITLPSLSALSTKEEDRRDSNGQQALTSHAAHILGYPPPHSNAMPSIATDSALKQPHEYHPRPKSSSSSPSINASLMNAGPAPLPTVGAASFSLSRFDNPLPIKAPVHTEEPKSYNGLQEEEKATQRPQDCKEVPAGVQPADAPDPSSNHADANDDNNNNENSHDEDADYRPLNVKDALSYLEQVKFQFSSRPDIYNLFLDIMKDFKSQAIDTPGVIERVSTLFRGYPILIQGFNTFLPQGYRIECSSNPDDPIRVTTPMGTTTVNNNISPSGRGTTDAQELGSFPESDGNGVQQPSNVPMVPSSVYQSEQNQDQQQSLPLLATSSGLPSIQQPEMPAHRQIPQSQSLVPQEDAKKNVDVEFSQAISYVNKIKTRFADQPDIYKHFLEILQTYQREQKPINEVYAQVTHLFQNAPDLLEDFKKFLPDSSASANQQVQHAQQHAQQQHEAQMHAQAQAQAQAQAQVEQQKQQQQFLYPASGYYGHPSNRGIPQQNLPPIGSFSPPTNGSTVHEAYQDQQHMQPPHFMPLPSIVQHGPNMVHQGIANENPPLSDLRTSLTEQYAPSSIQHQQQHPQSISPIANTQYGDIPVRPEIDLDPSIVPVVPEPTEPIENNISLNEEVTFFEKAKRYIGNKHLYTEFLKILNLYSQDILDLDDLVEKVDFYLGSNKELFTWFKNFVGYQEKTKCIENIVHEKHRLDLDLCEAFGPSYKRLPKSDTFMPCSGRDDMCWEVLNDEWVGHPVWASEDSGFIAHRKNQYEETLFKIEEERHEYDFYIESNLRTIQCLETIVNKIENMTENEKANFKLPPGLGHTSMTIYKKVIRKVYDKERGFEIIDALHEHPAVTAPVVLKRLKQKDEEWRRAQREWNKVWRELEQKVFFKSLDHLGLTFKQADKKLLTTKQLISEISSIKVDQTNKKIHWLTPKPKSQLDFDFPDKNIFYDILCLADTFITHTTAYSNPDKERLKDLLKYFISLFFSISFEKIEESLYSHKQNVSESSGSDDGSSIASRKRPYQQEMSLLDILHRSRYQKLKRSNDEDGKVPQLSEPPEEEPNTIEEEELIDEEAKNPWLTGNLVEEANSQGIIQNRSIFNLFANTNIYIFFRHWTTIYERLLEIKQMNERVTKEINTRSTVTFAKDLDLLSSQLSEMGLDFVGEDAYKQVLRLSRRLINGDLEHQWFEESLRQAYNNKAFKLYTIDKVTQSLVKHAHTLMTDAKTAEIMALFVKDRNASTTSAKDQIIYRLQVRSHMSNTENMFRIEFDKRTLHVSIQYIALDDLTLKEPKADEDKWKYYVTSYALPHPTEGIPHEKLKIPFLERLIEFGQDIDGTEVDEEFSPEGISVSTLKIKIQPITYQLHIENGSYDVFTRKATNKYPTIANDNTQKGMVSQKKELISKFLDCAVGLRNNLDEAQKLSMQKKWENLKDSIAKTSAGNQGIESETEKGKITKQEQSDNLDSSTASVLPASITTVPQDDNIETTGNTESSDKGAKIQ
Conditions: both partners purified.

The target of the data set “Rco1” is B2. Conditions: both partners purified.
Data set [1] concerns the molecule itself.

With B1, the binding result with Rpd3, in the data set with Sin3 and with Rco1 was “binds” throughout.

For B2, in the data set with Sin3, the binding result is “binds”. The “stoichiometry N” value in data set [1] came out at 2.

On to B3, for which the binding result with Sin3 and with Rco1 was “binds” each time.
